Results reported in article PMC3644619.

Molecular target: hormone-binding domain (HBD) of ERα
Experiment: two-hybrid

Sequence of PNRC1d (Q12796 186-327): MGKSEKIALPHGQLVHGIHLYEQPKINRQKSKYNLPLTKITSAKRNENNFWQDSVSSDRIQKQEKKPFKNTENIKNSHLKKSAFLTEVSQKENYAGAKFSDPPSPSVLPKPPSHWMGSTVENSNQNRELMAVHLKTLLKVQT
Sequence of hormone-binding domain (HBD) of ERα (P03372 whole entry, the tested form may be a part): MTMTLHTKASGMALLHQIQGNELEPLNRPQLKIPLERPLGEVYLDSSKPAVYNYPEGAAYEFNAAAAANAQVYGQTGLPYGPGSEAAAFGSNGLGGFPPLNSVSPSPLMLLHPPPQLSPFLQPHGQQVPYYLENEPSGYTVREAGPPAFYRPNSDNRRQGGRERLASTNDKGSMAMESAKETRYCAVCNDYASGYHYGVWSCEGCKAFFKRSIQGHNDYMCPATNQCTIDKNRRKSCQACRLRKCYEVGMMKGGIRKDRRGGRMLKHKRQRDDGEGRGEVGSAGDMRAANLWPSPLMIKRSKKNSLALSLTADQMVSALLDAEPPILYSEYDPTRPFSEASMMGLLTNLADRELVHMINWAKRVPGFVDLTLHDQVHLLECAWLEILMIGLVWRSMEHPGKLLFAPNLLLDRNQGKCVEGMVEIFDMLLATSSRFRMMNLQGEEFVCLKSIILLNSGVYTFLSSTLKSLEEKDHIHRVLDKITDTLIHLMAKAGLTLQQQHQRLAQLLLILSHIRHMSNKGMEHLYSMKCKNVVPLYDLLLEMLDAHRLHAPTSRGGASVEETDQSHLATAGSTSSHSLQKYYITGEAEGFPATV

In the case of “PNRC1d (from UniProt Q12796 186-327) (natural protein)”, the fold increase of affinity compared to fl PNRC (two-hybrid β-galactosidase) is reported as > 10 fold.
